Measurements: US11278600B2, “Human alpha-galactosidase variants” (Codexis, Inc., priority 2014, dated 2022)

Legend:
Assay type in all cases: biochemical
[1] = HTP-analysis of supernatants pretreated with base (MUGal hydrolysis); details: activity of the variant/activity of Rd7BB (SEQ ID NO: 44); challenge at pH 7.5
Summary of the method: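 GLA variants secreted from yeast INVSc1; culture supernatants pre-incubated with McIlvaine buffer pH 7.0–8.2 or 200 mM bicarbonate pH 9.1–9.7 at 37° C. for 1–18 h. Residual activity: MUGal (4 mM stock) hydrolysis at pH 4.3–4.8, 37° C., 30–180 min, carbonate quench; fluorescence Ex 355/Em 448 nm.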

[2] = HTP-analysis of supernatants pretreated with acid (MUGal hydrolysis); details: activity of the variant/activity of Rd7BB (SEQ ID NO: 44); challenge at pH 3.5
Summary of the method: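 Yeast INVSc1 supernatant, GLA variants; acid challenge: McIlvaine pH 3.3-4.3, 37° C., 1-3 h. Assay: MUGal in McIlvaine pH 4.8 plus citrate pH 4.3, 37° C., 30-180 min, Na2CO3 stop, Ex 355/Em 448 nm.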

[3] = HTP-analysis of yeast culture supernatants, no challenge (MUGal hydrolysis); details: activity of the variant/activity of Rd7BB (SEQ ID NO: 44)
Summary of the method: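 GLA variants were expressed in INVSc1 yeast grown in SD-Ura broth with glucose at 30° C., and culture supernatants were collected after 66-84 h. Supernatant was mixed with McIlvaine buffer pH 4.8 and MUGal (2 mM stock) in 50 mM citrate, 200 mM KCl, pH 4.6, incubated at 37° C. for 30-180 minutes, then quenched with sodium carbonate.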

Molecule | Relative Activity of GLA Variants After Challenge at pH 7.5 [1] | Relative Activity of GLA Variants After Challenge at pH 3.5 [2] | Relative Activity of GLA Variants After No Challenge (NC) [3]
687 (protein, Synthetic Polypeptide sequence of Variant No. 687 of mature Human GLA) LDNGLARTPTMGWLHWERFMCNLDCQEEPDSCISEKLFMEMAERMVTEGWKDAGYEYLCIDDCWMAPQRDSEGRLQADPQRFPHGIRQLANHVHSKGLKLGIYADVGNKTCAGFPGSFGYYDIDAQTFADWGVDLLKFDGCYCDSLENLADGYKHMSLALNRTGRPIVYSCEWPLYMWPFQKPNYTEIRQYCNHWRNFADIDDSWASIKSILDWTSRNQERIVDVAGPGGWNDPDMLVIGNFGLSWDQQVTQMALWAIMAAPLFMSNDLRAISPQAKALLQDKDVIAINRDPLGKQGYQLRKGDNFEVWERPLSGDAWAVAIINRQEIGGPRSYTIPVASLGKGVACNPACFITQLLPVKRQLGFYNATSRLKSHINPTGTVLLQLENTMQTSLKDLL | − (<0.5 relative activity to Rd7BB (SEQ ID NO: 44)) | − (<0.5 relative activity to Rd7BB (SEQ ID NO: 44)) | + (>0.5 to 1.5 relative activity over Rd7BB (SEQ ID NO: 44))
690 (protein, Synthetic Polypeptide sequence of Variant No. 690 of mature Human GLA) LDNGLARTPPMGWLHWERFMCNLDCQEEPDSCISEKLFMEMAERMVTEGWKDAGYEYLCIDDCWMAPQRDSEGRLQADPQRFPHGIRQLANHVHSKGLKLGIYADVGNKTCAGFPGSFGYYDIDAQTFADWGVDLLKFDGCYCDSLENLADGYKHVSLALNRTGRPIVYSCEWPLYMWPFQKPNYTEIRQYCNHWRNFADIDDSWASIKSILDWTSRNQERIVDVAGPGGWNDPDMLVIGNFGLSWDQQVTQMALWAIMAAPLFMSNDLRAISPQAKALLQDKDVIAINQDPLGKQGYQLRKGDNFEVWERPLSGDAWAVAIINRQEIGGPRSYTIPVASLGKGVACNPACFITQLLPVKRQLGFYNWTSRLKSHINPTGTVLLQLENTMQTSLKDLL | − (<0.5 relative activity to Rd7BB (SEQ ID NO: 44)) | − (<0.5 relative activity to Rd7BB (SEQ ID NO: 44)) | + (>0.5 to 1.5 relative activity over Rd7BB (SEQ ID NO: 44))
691 (protein, Synthetic Polypeptide sequence of Variant No. 691 of mature Human GLA) LDNGLARTPPMGWLHWERFMCNLDCQEEPDSCISEKLFMEMAERMVTEGWKDAGYEYLCIDDCWMAPQRDSEGRLQADPQRFPHGIRQLANHVHSKGLKLGIYADVGNKTCAGFPGSFGYYDIDAQTFADWGVDLLKFDGCYCDSLENLADGYKHMSLALNRTGRPIVYSCEWPLYMWPFQKPNYTEIRQYCNHWRNFADIDDSWASIKSILDWTSRNQERIVDVAGPGGWNDPDMLVIGNFGLSWDQQVTQMALWAIMAAPLFMSNDLRAISPQAKALLQDKDVIAINQDPLGKQGYQLRKGDNFEVWERPLSGDAWAVAIINRQEIGGPRSYTIPVASLGKGVACNPACFITQLLPVKRQLGFYNWTSRLKSHINPTGTVLLQLENTMQTSLKDLL | + (>0.5 to 1.5 relative activity over Rd7BB (SEQ ID NO: 44)) | + (>0.5 to 1.5 relative activity over Rd7BB (SEQ ID NO: 44)) | + (>0.5 to 1.5 relative activity over Rd7BB (SEQ ID NO: 44))
692 (protein, Synthetic Polypeptide sequence of Variant No. 692 of mature Human GLA) LDNGLARTPTMGWLHWERFMCNLDCQEEPDSCISEKLFMEMAERMVTEGWKDAGYEYLCIDDCWMAPQRDSEGRLQADPQRFPHGIRQLANHVHSKGLKLGIYADVGNKTCAGFPGSFGYYDIDAQTFADWGVDLLKFDGCYCDSLENLADGYKHMSLALNRTGRPIVYSCEWPLYMWPFQKPNYTEIRQYCNHWRNFADIDDSWASIKSILDWTSRNQERIVDVAGPGGWNDPDMLVIGNFGLSWDQQVTQMALLAIMAAPLFMSNDLRAISPQAKALLQDKDVIAINQDPLGKQGYQLRKGDNFEVWERPLSGDAWAVAIINRQEIGGPRSYTIPVASLGKGVACNPACFITQLLPVKRQLGFYNWTSRLKSHINPTGTVLLQLENTMQTSLKDLL | − (<0.5 relative activity to Rd7BB (SEQ ID NO: 44)) | − (<0.5 relative activity to Rd7BB (SEQ ID NO: 44)) | − (<0.5 relative activity to Rd7BB (SEQ ID NO: 44))
689 (protein, Synthetic Polypeptide sequence of Variant No. 689 of mature Human GLA) LDNGLARTPTMGWLHWERFMCNLDCQEEPDSCISEKLFMEMAERMVTEGWKDAGYEYLCIDDCWMAPQRDSEGRLQADPQRFPHGIRQLANHVHSKGLKLGIYADVGNKTCAGFPGSFGYYDIDAQTFADWGVDLLKFDGCYCDSLENLADGYKHMSLALNRTGRPIVYSCEWPLYMWPFQKPNYTEIRQYCNHWRNFADIDDSWASIKSILDWTSRNQERIVDVAGPGGWNDPDMLVIGNFGLSWDQQVTQMALWAIMAAPLFMSNDLRAISPQAKALLQDKDVIAINQDPLGKQGYQLRKGDLFEVWERPLSGDAWAVAIINRQEIGGPRSYTIPVASLGKGVACNPACFITQLLPVKRQLGFYNWTSRLKSHINPTGTVLLQLENTMQTSLKDLL | + (>0.5 to 1.5 relative activity over Rd7BB (SEQ ID NO: 44)) | + (>0.5 to 1.5 relative activity over Rd7BB (SEQ ID NO: 44)) | + (>0.5 to 1.5 relative activity over Rd7BB (SEQ ID NO: 44))
642 (protein, Synthetic Polypeptide sequence of Variant No. 642 of mature Human GLA) LDNGLARTPPMGWLHWERFMCNLDCQEEPDSCISEKLFMEMADRMVTEGWKDAGYEYLCIDDCWMAPQRDSEGRLQADPQRFPHGIRQLANHVHSKGLKLGIYADVGNKTCAGFPGSFGYYDIDAQTFADWGVDLLKFDGCYCDSLENLADGYKHMSLALNRTGRPIVYSCEWPLYMWPFQKPNYTEIRQYCNHWRNFADIDDSWASIKSILDWTSRNQERIVDVAGPGGWNDPDMLVIGNFGLSWDQQVTQMALWAIMAGPLFMSNDLRAISPQAKALLQDKDVIAINQDPLGKQGYQLRKGDLFEVWERPLSGDAWAVAIINRQEIGGPRSYTIPVASLGKGVACNPACFITQLLPVKRQLGFYNATSRLKSHINPTGTVLLQLENTMQTSLKDLL | + (>0.5 to 1.5 relative activity over Rd7BB (SEQ ID NO: 44)) | + (>0.5 to 1.5 relative activity over Rd7BB (SEQ ID NO: 44)) | + (>0.5 to 1.5 relative activity over Rd7BB (SEQ ID NO: 44))
688 (protein, Synthetic Polypeptide sequence of Variant No. 688 of mature Human GLA) LDNGLARTPTMGWLHWERFMCNLDCQEEPDSCISEKLFMEMAERMVTEGWKDAGYEYLCIDDCWMAPQRDSEGRLQADPQRFPHGIRQLANHVHSKGLKLGIYADVGNKTCAGFPGSFGYYDIDAQTFADWGVDLLKFDGCYCDSLENLADGYKHMSLALNRTGRPIVYSCEWPLYMWPFQKPNYTEIRQYCNHWRNFADIDDSWASIKSILDWTSRNQERIVDVAGQGGWNDPDMLVIGNFGLSWDQQVTQMALWAIMAAPLFMSNDLRAISPQAKALLQDKDVIAINQDPLGKQGYQLRKGDNFEVWERPLSGDAWAVAIINRQEIGGPRSYTIPVASLGKGVACNPACFITQLLPVKRQLGFYNWTSRLKSHINPTGTVLLQLENTMQTSLKDLL | − (<0.5 relative activity to Rd7BB (SEQ ID NO: 44)) | + (>0.5 to 1.5 relative activity over Rd7BB (SEQ ID NO: 44)) | + (>0.5 to 1.5 relative activity over Rd7BB (SEQ ID NO: 44))
693 (protein, Synthetic Polypeptide sequence of Variant No. 693 of mature Human GLA) LDNGLARTPTMGWLHWERFMCNLDCQEEPDSCISEKLFMEMAERMVTEGWKDAGYEYLCIDDCWMAPQRDSEGRLQADPQRFPHGIRQLANHVHSKGLKLGIYADVGNKTCAGFPGSFGYYDIDAQTFADWGVDLLKFDGCYCDSLENLADGYKHMSLALNRTGRPIVYSCEWPLYMWPFQKPNYTEIRQYCNHWRNFADIDDSWASIKSILDWTSRNQERIVDVAGPGGWNDPDMLVIGNFGLSWDQQVTQMALWAIMAAPLFMSNDLRAISPQAKALLQDKDVIAINQDPLGKQGYQLRKGDNFEVWERPLSGDAWAVAIINRQEIGGPRSYTIPVASLGKGVACNPACFITQLLPVKRQLGFYNATSRLKSHINPTGTVLLQLENTMQTSLKDLL | + (>0.5 to 1.5 relative activity over Rd7BB (SEQ ID NO: 44)) | + (>0.5 to 1.5 relative activity over Rd7BB (SEQ ID NO: 44)) | + (>0.5 to 1.5 relative activity over Rd7BB (SEQ ID NO: 44))
